From patent US20110118131A1 (published 2011)
Changes are numbered by the printed parent chain. Names and notes keep the numbering of the source.

B1: XPA23 Fab, heavy chain G56R (Fab, V domains shown)
VH: EVQLLESGGGLVQPGGSLRLSCAASGFTFSKYFMFWVRQAPGKGLEWVSVISPSGRMTRYADSVKGRFTISRDNSKNTLYLQMNSLRAEDTAVYYCARVGYGGNSDYWGQGTLVTVSS
VL: DIQMTQSPSSVSASVGDRLTIICRASQDINRWLAWYQQTPGNAPKLLIHSATSLQSGVPSRFSGSGSGTDFTLTINSLQPEDFATYYCQQADSFPLTFGGGTKVEIK
B2: XPA23 Fab, heavy chain G103D (Fab, V domains shown)
VH: B1 VH with R56G, G103D
VL: B1 VL
B3: XPA23 Fab, heavy chain I51W (Fab, V domains shown)
VH: B1 VH with I51W, R56G
VL: B1 VL
B4: XPA23 Fab, heavy chain I51D (Fab, V domains shown)
VH: B1 VH with I51D, R56G
VL: B1 VL
B5: XPA23 Fab, heavy chain G100D (Fab, V domains shown)
VH: B1 VH with R56G, G100D
VL: B1 VL
B6: XPA23 Fab, heavy chain K31S (Fab, V domains shown)
VH: B1 VH with K31S, R56G
VL: B1 VL
B7: XPA23 Fab, heavy chain G103W (Fab, V domains shown)
VH: B1 VH with R56G, G103W
VL: B1 VL
B8: XPA23 Fab, heavy chain G100Q (Fab, V domains shown)
VH: B1 VH with R56G, G100Q
VL: B1 VL
B9: XPA23 Fab, heavy chain I51N (Fab, V domains shown)
VH: B1 VH with I51N, R56G
VL: B1 VL
B10: XPA23 Fab, heavy chain I51Y (Fab, V domains shown)
VH: B1 VH with I51Y, R56G
VL: B1 VL
B11: XPA23 Fab, heavy chain G100Y (Fab, V domains shown)
VH: B1 VH with R56G, G100Y
VL: B1 VL
B12: XPA23 Fab, heavy chain G100K (Fab, V domains shown)
VH: B1 VH with R56G, G100K
VL: B1 VL
B13: XPA23 Fab, heavy chain K31R (Fab, V domains shown)
VH: B1 VH with K31R, R56G
VL: B1 VL
B14: XPA23 Fab, heavy chain G102E (Fab, V domains shown)
VH: B1 VH with R56G, G102E
VL: B1 VL
B15: XPA23 Fab, heavy chain K31Q (Fab, V domains shown)
VH: B1 VH with K31Q, R56G
VL: B1 VL
B16: XPA23 Fab, heavy chain G100H (Fab, V domains shown)
VH: B1 VH with R56G, G100H
VL: B1 VL
B17: XPA23 Fab, heavy chain K31E (Fab, V domains shown)
VH: B1 VH with K31E, R56G
VL: B1 VL
B18: XPA23 Fab, heavy chain G100R (Fab, V domains shown)
VH: B1 VH with R56G, G100R
VL: B1 VL
B19: XPA23 Fab, heavy chain I51E (Fab, V domains shown)
VH: B1 VH with I51E, R56G
VL: B1 VL
B20: XPA23 Fab, heavy chain G102Q (Fab, V domains shown)
VH: B1 VH with R56G, G102Q
VL: B1 VL
B21: XPA23 Fab, heavy chain I51H (Fab, V domains shown)
VH: B1 VH with I51H, R56G
VL: B1 VL
B22: XPA23 Fab, heavy chain I51R (Fab, V domains shown)
VH: B1 VH with I51R, R56G
VL: B1 VL
B23: XPA23 Fab, heavy chain G102N (Fab, V domains shown)
VH: B1 VH with R56G, G102N
VL: B1 VL
B24: XPA23 Fab, heavy chain G56W (Fab, V domains shown)
VH: B1 VH with R56W
VL: B1 VL
B25: XPA23 Fab, heavy chain G100W (Fab, V domains shown)
VH: B1 VH with R56G, G100W
VL: B1 VL
B26: XPA23 Fab, heavy chain G102H (Fab, V domains shown)
VH: B1 VH with R56G, G102H
VL: B1 VL
B27: XPA23 Fab, heavy chain G103K (Fab, V domains shown)
VH: B1 VH with R56G, G103K
VL: B1 VL
B28: XPA23 Fab, heavy chain G56Y (Fab, V domains shown)
VH: B1 VH with R56Y
VL: B1 VL
B29: XPA23 Fab, heavy chain K31H (Fab, V domains shown)
VH: B1 VH with K31H, R56G
VL: B1 VL
B30: XPA23 Fab, heavy chain G103Q (Fab, V domains shown)
VH: B1 VH with R56G, G103Q
VL: B1 VL
B31: XPA23 Fab, heavy chain G100F (Fab, V domains shown)
VH: B1 VH with R56G, G100F
VL: B1 VL
B32: XPA23 Fab, heavy chain G103E (Fab, V domains shown)
VH: B1 VH with R56G, G103E
VL: B1 VL
B33: XPA23 Fab, heavy chain I51K (Fab, V domains shown)
VH: B1 VH with I51K, R56G
VL: B1 VL
B34: XPA23 Fab, heavy chain G102K (Fab, V domains shown)
VH: B1 VH with R56G, G102K
VL: B1 VL
B35: XPA23 Fab, heavy chain I51S (Fab, V domains shown)
VH: B1 VH with I51S, R56G
VL: B1 VL
B36: XPA23 Fab, heavy chain K31D (Fab, V domains shown)
VH: B1 VH with K31D, R56G
VL: B1 VL
B37: XPA23 Fab, heavy chain I51Q (Fab, V domains shown)
VH: B1 VH with I51Q, R56G
VL: B1 VL
B38: XPA23 Fab, heavy chain G102R (Fab, V domains shown)
VH: B1 VH with R56G, G102R
VL: B1 VL
B39: XPA23 Fab, heavy chain G102W (Fab, V domains shown)
VH: B1 VH with R56G, G102W
VL: B1 VL
B40: XPA23 Fab, heavy chain G100S (Fab, V domains shown)
VH: B1 VH with R56G, G100S
VL: B1 VL
B41: XPA23 Fab, heavy chain G102Y (Fab, V domains shown)
VH: B1 VH with R56G, G102Y
VL: B1 VL
B42: XPA23 Fab, heavy chain G103R (Fab, V domains shown)
VH: B1 VH with R56G, G103R
VL: B1 VL
B43: XPA23 Fab, heavy chain K31F (Fab, V domains shown)
VH: B1 VH with K31F, R56G
VL: B1 VL
B44: XPA23 Fab, heavy chain I51F (Fab, V domains shown)
VH: B1 VH with I51F, R56G
VL: B1 VL
B45: XPA23 Fab, heavy chain G103F (Fab, V domains shown)
VH: B1 VH with R56G, G103F
VL: B1 VL
B46: XPA23 Fab, heavy chain K31N (Fab, V domains shown)
VH: B1 VH with K31N, R56G
VL: B1 VL

The binders below were run against T1, IL-1beta (UniProt P01584 117-269) (assay: Biacore).
T1 construct: also called IL-1β

fold difference in affinity vs parental [fold]	binding result	Binder
2.11	–	B1
–	no binding	B2
–	no binding	B3
0.07	–	B4
–	no binding	B5
–	no binding	B6
–	no binding	B7
–	no binding	B8
0.68	–	B9
1.75	–	B10
0.09	–	B11
–	no binding	B12
0.9	–	B13
–	no binding	B14
–	no binding	B15
0.06	–	B16
–	no binding	B17
–	no binding	B18
0.73	–	B19
–	no binding	B20
0.08	–	B21
0.1	–	B22
1.17	–	B23

fold difference in affinity vs parental [fold]	binding result	Binder
1.51	–	B24
0.05	–	B25
–	no binding	B26
–	no binding	B27
1.27	–	B28
1.11	–	B29
–	no binding	B30
–	no binding	B31
–	no binding	B32
0.11	–	B33
–	no binding	B34
0.69	–	B35
0.04	–	B36
0.83	–	B37
–	no binding	B38
–	no binding	B39
2.8	–	B40
–	no binding	B41
–	no binding	B42
0.05	–	B43
0.9	–	B44
–	no binding	B45
–	no binding	B46
